Data taken from PMC10739865, “The Mycobacterium tuberculosis methyltransferase Rv2067c manipulates host epigenetic programming to promote its own survival” (Nature Communications, 2023).

Target: the molecule itself
Assay: crystal structure

B1: Mycobacterium tuberculosis methyltransferase Rv2067c (tagless recombinant protein used for crystallization) (enzyme)
chain: TDDHPRADIVSRQYHRWLYPHPIADLEAWTTANWEWFDPVHSHRILWPDREYRPDLDILIAGCGTNQAAIFAFTNRAAKVVAIDISRPALDHQQYLKDKHGLANLELHLLPIEELATLGRDFDLVVSTGVLHHLADPRAGMKELAHCLRRDGVVAAMLYGKYGRIGVELLGSVFRDLGLGQDDASIKLAKEAISLLPTYHPLRNYLTKARDLLSDSALVDTFLHGRQRSYTVEECVDLVTSAGLVFQGWFHKAPYYPHDFFVPNSEFYAAVNTLPEVKAWSVMERLETLNATHLFMACRRDRPKEQYTIDFSTVAALDYVPLMRTRCGVSGTDMFWPGWRMAPSPAQLAFLQQVDGRRTIREIAGCVARTGEPSGGSLADLEEFGRKLFQSLWRLDFVAVALPASG
notes: also called MTase
For B1, the “stoichiometry N” value was 2.
